From US20170015742A1 (published 2017)
One block for each binder: values may come before it.

How the values were obtained:
[1] = target: recombinant human PDGF-BB (human, UniProt P01127 82-190); assay: cell-based or functional assay
[2] = target: recombinant human VEGF165 (human, UniProt P15692 207-395); assay: cell-based or functional assay
[3] = target: T1, VEGF-A (recombinant; human VEGF-A 165) (human, UniProt P15692 207-395); assay: Biacore SPR; binding protein captured on goat anti-human Fc, antigen injected (Example 1.1)
T1 construct: also called hVEGF165

[4] = target: T2, PDGF-BB (recombinant; human PDGF-BB) (human, UniProt P01127 82-190, limits assumed); assay: as above
T2 construct: PDGF-BB is a homodimer of two B chains; also called hPDGF-BB
T2 sequence (P01127 82-190 limits assumed): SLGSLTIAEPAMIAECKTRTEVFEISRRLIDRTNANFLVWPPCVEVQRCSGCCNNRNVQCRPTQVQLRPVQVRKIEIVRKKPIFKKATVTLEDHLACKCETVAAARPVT

T1 sequence (P15692 other isoform, or with tags, fused parts or gaps limits assumed): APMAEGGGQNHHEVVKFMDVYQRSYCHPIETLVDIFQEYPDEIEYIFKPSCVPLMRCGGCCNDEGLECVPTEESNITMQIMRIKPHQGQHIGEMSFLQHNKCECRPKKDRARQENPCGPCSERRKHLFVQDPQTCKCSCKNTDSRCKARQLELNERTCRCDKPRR
Sequence of recombinant human PDGF-BB (P01127 82-190 limits assumed): as the sequence (P01127 82-190 limits assumed) above

Potency IC50 (pM), Human PDGF-BB, cellular assay [1]: 34 pM
Potency IC50 (pM), Human VEGF-A, cellular assay [2]: 145 pM
B1: hu VEGF 9E10.1-GS-hu PDGF 33675 [hu IgG1/k] LALA H435A (PR-1610561) (bispecific antibody)
heavy: EIQLVQSGSELKKPGASVKVSCKASGYTFTNYGMYWVKQAPGQGLEYMGWIDTETGRPTYADDFKGRFVFSLDTSVSTAYLQISSLKAEDTAVYFCARWSGDTTGIRGPWFAYWGQGTLVTVSSGGGGSGGGGSEVTLRESGPALVKPTQTLTLTCTFSGFSLSTYGMGVGWIRQPPGKALEWLANIWWDDDKYYNPSLKNRLTISKDTSKNQVVLTMTNMDPVDTATYYCARIESSGPKYSFDYWGQGTMVTVSSASTKGPSVFPLAPSSKSTSGGTAALGCLVKDYFPEPVTVSWNSGALTSGVHTFPAVLQSSGLYSLSSVVTVPSSSLGTQTYICNVNHKPSNTKVDKKVEPKSCDKTHTCPPCPAPEAAGGPSVFLFPPKPKDTLMISRTPEVTCVVVDVSHEDPEVKFNWYVDGVEVHNAKTKPREEQYNSTYRVVSVLTVLHQDWLNGKEYKCKVSNKALPAPIEKTISKAKGQPREPQVYTLPPSREEMTKNQVSLTCLVKGFYPSDIAVEWESNGQPENNYKTTPPVLDSDGSFFLYSKLTVDKSRWQQGNVFSCSVMHEALHNAYTQKSLSLSPGK
light: DIRMTQSPSSLSASVGDRVTIECLASEDIYSDLAWYQQKPGKSPKLLIYNANGLQNGVPSRFSGSGSGTDYSLTISSLQPEDVATYFCQQYNYFPGTFGQGTKLEIKGGSGGGGSGGEIVLTQSPGTLSLSPGERATLSCRASSGSIWYSFVSWYQQKPGQAPRLLIYADDQRASGIPDRFSGSGSGTDFTLTISRLEPEDFAVYYCQSYGINIDVVFGGGTKVEIKRTVAAPSVFIFPPSDEQLKSGTASVVCLLNNFYPREAKVQWKVDNALQSGNSQESVTEQDSKDSTYSLSSTLTLSKADYEKHKVYACEVTHQGLSSPVTKSFNRGEC

Kd [3]: 13 pM
kon [3]: 4.5e+06 M⁻¹ s⁻¹
Kd [4]: 4.2 pM
kon [4]: 3.2e+07 M⁻¹ s⁻¹
B2: CODV022 (PR-1577056), anti-human VEGF-A/anti-human PDGF-BB cross-over DVD-Ig molecule (bispecific antibody, human IgG1, kappa, L234A L235A)
heavy: EVQLVQSGSELKKPGASVKVSCKASGYTFTNYGMYWVRQAPGQGLEWMGWINTETGKPTYADDFKGRFVFSLDTSVSTAYLQISSLKAEDTAVYYCARTNYYYRSYIFYFDYWGQGTMVTVSSGGGGSGGGEFVLTQSPGTLSLSPGERATLSCERSSGDIGESYVSWYQQKPGQAPRLVIYADDQRPSGIPDRFSGSGSGTDFTLTISRLEPEDFAVYYCQSYDINIDIVFGGGTKVEIKGGGSGASTKGPSVFPLAPSSKSTSGGTAALGCLVKDYFPEPVTVSWNSGALTSGVHTFPAVLQSSGLYSLSSVVTVPSSSLGTQTYICNVNHKPSNTKVDKKVEPKSCDKTHTCPPCPAPEAAGGPSVFLFPPKPKDTLMISRTPEVTCVVVDVSHEDPEVKFNWYVDGVEVHNAKTKPREEQYNSTYRVVSVLTVLHQDWLNGKEYKCKVSNKALPAPIEKTISKAKGQPREPQVYTLPPSREEMTKNQVSLTCLVKGFYPSDIAVEWESNGQPENNYKTTPPVLDSDGSFFLYSKLTVDKSRWQQGNVFSCSVMHEALHNAYTQKSLSLSPGK
light: EVTLRESGPALVKPTQTLTLTCTFSGFSLSTYGMGVGWIRQPPGKALEWLANIWWDDDKYYNPSLKNRLTISKDTSKNQVVLTMTNMDPVDTATYYCARIESIGTTYSFDYWGQGTMVTVSSGGGGSDTVLTQSPATLSLSPGERATLSCRASESVSTHMHWYQQKPGQAPRLLIYGASNLESGVPARFSGSGSGTDFTLTISSLEPEDFAVYFCQQSWNDPFTFGQGTKLEIKGGSRTVAAPSVFIFPPSDEQLKSGTASVVCLLNNFYPREAKVQWKVDNALQSGNSQESVTEQDSKDSTYSLSSTLTLSKADYEKHKVYACEVTHQGLSSPVTKSFNRGEC
notes: Cross-over DVD-Ig: the variable domains of the 4G8.3 (VEGF) and 9E8.4E (PDGF) sites are spread over both chains; also called CO-DVD-Ig
